From the supplement of paper PMC9170038

Columns and labels:
[1] = tested on: K4 kissing-loop RNA reporter; experiment: apparent KD of K4 kissing-loop reporter; higher = weaker reporter binding; conditions: Eterna round: R107;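 note: bound reporter read as fluorescence of individual clusters on recovered sequencing chips by microscopy, with normalized cluster intensities fitted with a binding model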
Experimental: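 RNA-MaP round R107: designed RNA switches with theophylline, tryptophan, arginine or FMN aptamers are transcribed on-chip within common flanks. They are titrated with a labelled K4 kissing-loop RNA reporter in RNA-MaP buffer (100 mM Tris pH 7.5, 80 mM KCl, 4 mM MgCl2), without ligand or with the indicated ligand. Median apparent KD per design.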

[2] = tested on: MS2 coat protein; experiment: apparent KD of MS2 coat protein; designed switch direction (-1 OFF switch, 1 ON switch): -1; higher = weaker reporter binding
In short: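 The reported apparent KD is a per-design median over clusters, from curve fits of normalised cluster fluorescence. Protein titrations used SNAP-549-labelled MS2 coat protein, doubled from 0.7 or 1.5 nM to 3 µM, in Tris-HCl pH 7.5 buffer with KCl, MgCl2, BSA, DTT, tRNA and Tween-20, with no input, 200 uM small-molecule ligand, or an oligonucleotide input. The RNA switches were transcribed on Illumina chips by stalled E. coli RNA polymerase.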

[3] = input ligand: theophylline 20 uM
[4] = input ligand: tryptophan 2.4 mM
[5] = Eterna round: R95, input ligand: microRNA oligo, concentration not stated
[6] = input ligand: microRNA oligo, concentration not stated

Sequence	apparent KD of K4 kissing-loop reporter ([1]; input ligand: FMN 200 uM) [µM]	apparent KD of K4 kissing-loop reporter ([1]; input ligand: arginine 13.2 mM) [µM]	apparent KD of K4 kissing-loop reporter ([1]; input ligand: none) [µM]	apparent KD of K4 kissing-loop reporter [1, 3] [µM]	apparent KD of K4 kissing-loop reporter [1, 4] [µM]	apparent KD of MS2 coat protein [2, 5] [µM]	apparent KD of MS2 coat protein ([2]; input ligand: FMN 200 uM) [µM]	apparent KD of MS2 coat protein ([2]; input ligand: none) [µM]	apparent KD of MS2 coat protein [2, 6] [µM]
GCGCGUCAUGUCAGCGGUGACACUGUCGAUACCAGCGCCGAAAGGCGCCCUUGGCAGCGACGUGCUGGAGUGAUGUUCCAGCGUC [#2 Exclusion - Theophylline A Attempt #24 (HarryS)]	0.163	0.108	0.148	0.148	0.139	–	–	–	–
CAUCCUACACCUCAAGCAGUGAUGUUGCUACGAGGACCGGUACGGCCGCCACUCGUUUAAGCAUGGAUAUUAGCUGUGCUGACUA [theeternabot_exclusion_KL_Trp_A_16]	0.468	0.458	0.461	0.576	0.439	–	–	–	–
GCUAUGGUAGGAAGGAGCGCUUAUUUAUUAAUAAGAGUGAUGUUCGAUAAUAAAUAUUUAUAGCAGGUAGGUCGCCUACUAUAGC [Arginine B K4 1]	0.225	0.219	0.232	0.227	0.204	–	–	–	–
GCCUGGGCACGAAGGAGCGCCGUGACAGGUUACUGCCUUGGGCAGUGAUGUUGCUCAAUCUGGCAGGUAGGUCGCGUGCCCAGGC	0.162	0.162	0.161	0.159	0.168	–	–	–	–
GGAUCCACCAGUGAUGUUGGAGAAAACUUCAAGGAUAUGACGAAAGUCAGAAGGUGGUAGACUGGACAAAGUCCGGUAGGAUCCA [FmnA10 U29+A78]	0.604	0.395	0.49	0.57	0.528	–	–	–	–
AAGGGCGGGACUUUCUCGCCGGAUAGAGAUACCAGCCCAGCAAAGGGCCCUUGGCAGCUCACUGACCUCAGUGAUGUUGAGGUUC [Soerrainat]	0.295	0.24	0.242	0.199	0.266	–	–	–	–
CUAUCCCGCCGUGUACGUAAUAUACGGUGCCGAGGACCGGUACGGCCGCCACUCGAUAAGCUUUGUCGGAGUGAUGUUCCGACCG [Maais]	0.2	0.156	0.229	0.28	0.202	–	–	–	–
CGAUCUUGGUCGGCCGCCACUACACCCACACCAAAUAGGAAAGUAGCGAGUGAUGUUUGUGACGUUAGGACCGGGACCACUGGUC [theeternabot_sameState_KL_Trp_B_25]	0.586	0.321	0.526	0.564	0.392	–	–	–	–
ACAGUCCCGCAUGGUGCGAACGAGAGAUGGCGAGGACCGGUACGGCCGCCACUCGAACAAGUGAUGUUUGAUAUCAUUUUUCUAC [theeternabot_sameState_KL_Trp_A_10]	0.0986	0.0833	0.117	0.0907	0.0854	–	–	–	–
ACAGAUGCUAGUGAUACCAGACUAGCACUACGUAAUAUGUCAAGUGAUGUUUGACAACUAGUCCCUUGGCAGCGCGAUACGUCUG [Theo B SS t2]	0.297	0.353	0.295	0.305	0.261	–	–	–	–
AGACUACUGAUAGGAUAUAACAUACUACUCGUAUACCAAAGGUAUACGAGAACCCUUCUAGUGAUGUUAGAAGGGUCGGUAGUCA [Omei KL FMN B Exc B v7]	0.0826	0.068	0.0709	0.0701	0.0728	–	–	–	–
AUGCGCGUGCGAUGCAAAUCGCACGCGCAUCGAGGACCGGUACGGCCGCCACUCGCUCGCGCCGAGUGAUGUUCGGCCGGCGAAC [#2 Same State - Tryptophan A Attempt #6 (HarryS)]	0.258	0.243	0.269	0.327	0.565	–	–	–	–
ACGUAGUUCUAGGAUACCAGCCAAAUAGCCAGGACGAGAGUCCUGGCUGCCAGUGAUGUUGGCCCUUGGCAGCCUAGAUCUUCUU [zmodel 1]	0.161	0.136	0.144	0.218	0.149	–	–	–	–
AAGUGUCAUUAGACACACUGAUGUAUAAACUAGGAUAUGCUGAUAAGCAGAAGGAGUGAUGUUCCUUUCAUCAUCAGAAUUAAAU [KL-XFMN-A2]	0.167	0.113	0.11	0.127	0.0945	–	–	–	–
AUUUUUUUGUCAGGAUAUUAGUGUUGGUUUGGUUUGUUAGUGAUGUUGAUAUUUGUUUUAUGUAUUUAAGAAGGGAUUUAGAUGU [zaahullin]	0.428	0.33	0.335	0.407	0.293	–	–	–	–
GUAUGUGGAAACACGUACUUAUAUCCUAGGCAGGAUAUGCGGAAACGCAGAAGGGCCACCGGCGAGAAAAUCCAGUGAUGUUGGA [Ex FMN A 7]	0.26	0.248	0.244	0.238	0.249	–	–	–	–
GUGAAGUGAGGAUAUACGAGAGAGGCUGAACCGGACGAGAAGUAGAAGGCACAUGAGGAUCACCCAUGUACGGG [JR_Exclu4_Sub023] (puzzle: Exclusion 4)	–	–	–	–	–	0.164	–	–	–
GGUCCACAUGAGGAUCACCCAUGUGAGGAUAUGCAGCGGGAGCCGCCGCCGAACCGAUGUAGAAGGCACACCUG [Eternabot (Original) Solution 19] (Eterna round: R97, puzzle: Exclusion 1)	–	–	–	–	–	–	0.019	0.0204	–
CAGUACUGAGGAUAUACAUGAGGAUCACCCAUGUGUUCCAGCUAGGAAACUAGCAAAUGUAGAAGGCAGUACUG [Salish 065 m8] (Eterna round: R97, puzzle: Exclusion 3)	–	–	–	–	–	–	0.0451	0.323	–
CGUCGAAAUGUAGGAUAUCUGCACGAUUAGUGCAGAGAAGGACAUGAGGAUCACCCAUGUAGAUCACGACGAAUUAAUUUAAUU [ENG1/5-C1] (Eterna round: R96, puzzle: Exclusion NG 1)	–	–	–	–	–	–	–	–	0.0484
AAUCCACAUGAGGAUCACCCAUGUGAGGAUAUGUCCAUAUUCGGCAAAUCGGAUAUGGACAGAAGGCACAUAAA [JR_Exclusion1_Sub013] (puzzle: Exclusion 1)	–	–	–	–	–	0.0283	–	–	–
UUUAAUUUAAUUAAGAUCACAUGAGGAUCACCCAUGUAUAUAUAGGAUAUCAGCUCGAAUAGAGCUGAGAAGGAUAUAUACAUA [ExNG3/4-A4] (Eterna round: R96, puzzle: Exclusion NG 3)	–	–	–	–	–	–	–	–	0.0394
UUCACAUGGACAUGAGAUCACAUGAGGAUCACCCAUGUGAAUAACAAGCUUUUUGCUCGUCUUAUGUCCAAUAAUAG [Stov1/14-C2] (Eterna round: R97, puzzle: Sensor, turn-off variant 1)	–	–	–	–	–	–	0.0137	0.0126	–
